# What was measured:
# [1] = target: CD137 antigen used to stain yeast (human) (UniProt Q07011); assay: flow cytometry of yeast displaying the scFv, CD137 binding against scFv display; file 01-5112.2-B5.fcs; kind of statistic and antigen concentration not given; the boxed gate is set on scFv display
# [2] = target: CD137 antigen used to stain yeast (human) (UniProt Q07011); assay: flow cytometry of yeast displaying the scFv, quadrant plot; the other quadrants read 0.39% (upper left), 34.3% (lower left), 3.83% (lower right)
# [3] = target: CD137 antigen used to stain yeast (human) (UniProt Q07011); assay: flow cytometry of yeast displaying the scFv, CD137 binding against scFv display; file 01-display-C2.fcs; antigen concentration not given
# [4] = target: CD137 antigen used to stain yeast (human) (UniProt Q07011); assay: flow cytometry of yeast displaying the scFv clone after TEV protease treatment, CD137 binding against scFv display; file 01-2317-B8.fcs; antigen concentration not given
# [5] = target: CD137 antigen used to stain yeast (human) (UniProt Q07011); assay: flow cytometry of yeast displaying the clone after TEV protease treatment, CD137 binding against the axis printed as scFv display; file 01-2328-B11.fcs; antigen concentration not given
# Chain of CD137 antigen used to stain yeast (human) (Q07011 24-186 limits assumed): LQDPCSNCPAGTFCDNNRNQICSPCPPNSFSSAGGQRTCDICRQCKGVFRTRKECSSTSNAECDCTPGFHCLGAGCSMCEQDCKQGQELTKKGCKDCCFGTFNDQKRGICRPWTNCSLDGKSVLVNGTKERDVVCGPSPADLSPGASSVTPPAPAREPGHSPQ
binder,measurement,setting,value
"scFv of TY21242 displayed on yeast (scFv, part only; not given: scFv linker, Aga2, tag, V domains shown, not shown: another chain or arm of the molecule; large carriers; small tags and cut ends) VL: DIQLTQSPSSLSASVGDRVTITCRASQSIGSYLAWYQQKPGKAPKLLIYDASNLETGVPSRFSGSGSGTDFTLTISSLQPEDFATYYCQQGYYLWTFGQGTKVEIK VH: EVQLVESGGGLVQPGGSLRLSCAASGFSLSTGGVGVGWIRQAPGKGLEWLALIDWADDKYYSPSLKSRLTISRDNSKNTLYLQLNSLRAEDTAVYYCARGGSDTVIGDWFAYWGQGTLVTVSS","Y (signal on the CD137 binding axis, FL2-A :: PE-A)",[1],19200
same,percent of cells in the upper right quadrant (scFv display positive and CD137 binding positive),[2],61.4%
same,"Y (signal on the CD137 binding axis, FL2-A :: PE-A)",[3],27800
"CD137 activatable antibody clone B13428 (scFv on yeast, masking peptide cleaved by TEV protease) (scFv, part only; not given: cleavage stub, scFv linker, Aga2, V domains shown, not shown: another chain or arm of the molecule; large carriers; small tags and cut ends) VL: DIQLTQSPSSLSASVGDRVTITCRASQSIGSYLAWYQQKPGKAPKLLIYDASNLETGVPSRFSGSGSGTDFTLTISSLQPEDFATYYCQQGYYLWTFGQGTKVEIK VH: EVQLVESGGGLVQPGGSLRLSCAASGFSLSTGGVGVGWIRQAPGKGLEWLALIDWADDKYYSPSLKSRLTISRDNSKNTLYLQLNSLRAEDTAVYYCARGGSDTVIGDWFAYWGQGTLVTVSS","Y (signal on the CD137 binding axis, FL2-A :: PE-A)",[4],10100
"CD137 activatable antibody clone B13439 (scFv on yeast, masking peptide cleaved by TEV protease) (scFv, part only; not given: cleavage stub, scFv linker, Aga2, tag, V domains shown, not shown: another chain or arm of the molecule; large carriers; small tags and cut ends) VL: DIQLTQSPSSLSASVGDRVTITCRASQSIGSYLAWYQQKPGKAPKLLIYDASNLETGVPSRFSGSGSGTDFTLTISSLQPEDFATYYCQQGYYLWTFGQGTKVEIK VH: EVQLVESGGGLVQPGGSLRLSCAASGFSLSTGGVGVGWIRQAPGKGLEWLALIDWADDKYYSPSLKSRLTISRDNSKNTLYLQLNSLRAEDTAVYYCARGGSDTVIGDWFAYWGQGTLVTVSS","Y (signal on the CD137 binding axis, FL2-A :: PE-A)",[5],7270

# Source: patent US20210207126A1
